Experimental data taken from patent publication US10160993B2, “Tyrosine kinase biosensors and methods of use” (Purdue Research Foundation, priority 2014, dated 2018).
No end group written: not given here. *: point of attachment. Biotin = O=C1N[C@H]2[C@H](CS[C@H]2CCCCC(=O)*)N1

Experiments:
Format in all cases: biochemical
ALK kinase = ALK kinase (Homo sapiens, UniProt Q9UM73); test: ELISA assay of peptide phosphorylation by ALK kinase in vitro; settings: 25 μM peptides, 0.1 unit kinase, 100 μM ATP, 10 mM Mg2+, pH 7.5, 35-38° C.
Protocol: (§1) Referring now to FIG. 1 which illustrates ALAStide-A (SEQ. ID NO. 1) and ALAStide-B (SEQ. ID NO. 2) being phosphorylated by ALK kinase in vitro, the results are obtained by an enzyme-linked immunosorbent assay (ELISA). […] Total reaction volume is 50 μL, and reaction temperature is set between 35-38° C. At selected time points, 5 μL, sample was taken out and quenched in 20 μL 40 mM EDTA solution. The quenched samples were then used to perform ELISA assay.

Lyn = Lyn (Homo sapiens, UniProt P07948); test: ELISA specificity assay, phosphorylation by Lyn; settings: conditions similar to ALK ELISA
Protocol: as §1
(§2) The specificity of the ALK-specific biosensors, ALAStide-A and ALAStide-B is shown in an ELISA assay, with YFF peptide used as a positive and negative control. The ALK-specific biosensors were assayed for phosphorylation activity against ALK, Lyn, Abl, and Csk. YFF peptide, whose kinase specificity (as reported in Biochemistry 44, 8533-8542, 2005) is used as a reference. The experimental condition may be similar to those described for the ELISA assay above.

Abl = Abl (Homo sapiens, UniProt P00519); test: ELISA specificity assay, phosphorylation by Abl; settings: conditions similar to ALK ELISA
Protocol: as §1, §2

Csk = Csk (Homo sapiens, UniProt P41240); test: ELISA specificity assay, phosphorylation by Csk; settings: conditions similar to ALK ELISA
Protocol: as §1, §2

Sequence of Lyn (P07948 whole entry, species assumed): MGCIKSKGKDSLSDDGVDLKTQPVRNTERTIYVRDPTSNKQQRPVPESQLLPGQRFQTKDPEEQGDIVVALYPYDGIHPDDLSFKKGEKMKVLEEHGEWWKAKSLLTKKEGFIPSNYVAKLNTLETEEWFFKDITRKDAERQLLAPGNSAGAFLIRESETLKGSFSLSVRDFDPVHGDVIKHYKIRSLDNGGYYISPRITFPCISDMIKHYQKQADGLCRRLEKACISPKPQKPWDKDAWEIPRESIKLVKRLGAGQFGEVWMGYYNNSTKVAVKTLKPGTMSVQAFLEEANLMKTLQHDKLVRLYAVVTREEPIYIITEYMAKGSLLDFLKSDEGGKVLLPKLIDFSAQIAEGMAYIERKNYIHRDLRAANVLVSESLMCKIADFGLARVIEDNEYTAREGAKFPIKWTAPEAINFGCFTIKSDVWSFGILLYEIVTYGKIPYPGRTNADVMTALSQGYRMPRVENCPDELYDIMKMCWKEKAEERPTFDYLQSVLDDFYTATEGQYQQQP
Sequence of Abl (P00519 whole entry, species assumed): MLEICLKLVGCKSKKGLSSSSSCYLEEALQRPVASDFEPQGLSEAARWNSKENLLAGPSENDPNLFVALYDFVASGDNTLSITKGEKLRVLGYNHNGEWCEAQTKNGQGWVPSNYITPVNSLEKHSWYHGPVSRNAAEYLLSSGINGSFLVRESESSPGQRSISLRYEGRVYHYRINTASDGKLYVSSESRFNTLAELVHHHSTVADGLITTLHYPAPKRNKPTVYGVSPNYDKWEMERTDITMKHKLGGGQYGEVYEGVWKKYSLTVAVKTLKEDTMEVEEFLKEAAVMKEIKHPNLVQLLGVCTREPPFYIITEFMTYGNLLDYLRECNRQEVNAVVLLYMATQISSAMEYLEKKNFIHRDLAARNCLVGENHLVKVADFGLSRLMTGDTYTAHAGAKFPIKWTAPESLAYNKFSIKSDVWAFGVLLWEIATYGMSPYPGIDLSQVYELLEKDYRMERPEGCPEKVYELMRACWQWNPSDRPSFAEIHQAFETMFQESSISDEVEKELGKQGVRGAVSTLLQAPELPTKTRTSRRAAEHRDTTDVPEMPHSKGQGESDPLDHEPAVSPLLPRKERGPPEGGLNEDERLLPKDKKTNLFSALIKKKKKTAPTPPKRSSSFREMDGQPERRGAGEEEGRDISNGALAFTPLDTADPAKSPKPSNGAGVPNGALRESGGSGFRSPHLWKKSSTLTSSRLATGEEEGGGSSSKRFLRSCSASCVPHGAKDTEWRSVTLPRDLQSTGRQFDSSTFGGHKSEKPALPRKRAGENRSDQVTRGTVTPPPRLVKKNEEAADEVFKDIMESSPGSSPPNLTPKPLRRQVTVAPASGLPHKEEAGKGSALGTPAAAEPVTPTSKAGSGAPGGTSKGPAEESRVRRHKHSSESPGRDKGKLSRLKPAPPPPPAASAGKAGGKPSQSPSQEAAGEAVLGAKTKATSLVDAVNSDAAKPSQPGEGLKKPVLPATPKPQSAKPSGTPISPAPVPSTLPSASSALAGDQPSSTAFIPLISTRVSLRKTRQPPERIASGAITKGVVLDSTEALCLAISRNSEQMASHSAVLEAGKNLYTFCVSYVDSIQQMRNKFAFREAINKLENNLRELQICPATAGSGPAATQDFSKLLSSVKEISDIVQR
Sequence of Csk (P41240 whole entry, species assumed): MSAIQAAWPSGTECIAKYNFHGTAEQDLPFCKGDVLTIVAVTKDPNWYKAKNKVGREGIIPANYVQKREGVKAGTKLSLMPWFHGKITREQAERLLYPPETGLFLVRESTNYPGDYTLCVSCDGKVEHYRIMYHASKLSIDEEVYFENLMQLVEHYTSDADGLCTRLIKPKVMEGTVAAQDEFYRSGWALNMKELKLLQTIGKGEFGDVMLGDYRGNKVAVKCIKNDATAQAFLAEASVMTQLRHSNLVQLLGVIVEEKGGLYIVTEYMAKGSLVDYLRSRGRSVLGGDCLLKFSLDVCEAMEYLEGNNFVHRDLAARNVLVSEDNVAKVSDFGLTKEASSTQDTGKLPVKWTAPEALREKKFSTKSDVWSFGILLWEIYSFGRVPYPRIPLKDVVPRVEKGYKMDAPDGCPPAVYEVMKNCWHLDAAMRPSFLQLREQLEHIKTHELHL
Sequence of ALK kinase (Q9UM73 19-1620): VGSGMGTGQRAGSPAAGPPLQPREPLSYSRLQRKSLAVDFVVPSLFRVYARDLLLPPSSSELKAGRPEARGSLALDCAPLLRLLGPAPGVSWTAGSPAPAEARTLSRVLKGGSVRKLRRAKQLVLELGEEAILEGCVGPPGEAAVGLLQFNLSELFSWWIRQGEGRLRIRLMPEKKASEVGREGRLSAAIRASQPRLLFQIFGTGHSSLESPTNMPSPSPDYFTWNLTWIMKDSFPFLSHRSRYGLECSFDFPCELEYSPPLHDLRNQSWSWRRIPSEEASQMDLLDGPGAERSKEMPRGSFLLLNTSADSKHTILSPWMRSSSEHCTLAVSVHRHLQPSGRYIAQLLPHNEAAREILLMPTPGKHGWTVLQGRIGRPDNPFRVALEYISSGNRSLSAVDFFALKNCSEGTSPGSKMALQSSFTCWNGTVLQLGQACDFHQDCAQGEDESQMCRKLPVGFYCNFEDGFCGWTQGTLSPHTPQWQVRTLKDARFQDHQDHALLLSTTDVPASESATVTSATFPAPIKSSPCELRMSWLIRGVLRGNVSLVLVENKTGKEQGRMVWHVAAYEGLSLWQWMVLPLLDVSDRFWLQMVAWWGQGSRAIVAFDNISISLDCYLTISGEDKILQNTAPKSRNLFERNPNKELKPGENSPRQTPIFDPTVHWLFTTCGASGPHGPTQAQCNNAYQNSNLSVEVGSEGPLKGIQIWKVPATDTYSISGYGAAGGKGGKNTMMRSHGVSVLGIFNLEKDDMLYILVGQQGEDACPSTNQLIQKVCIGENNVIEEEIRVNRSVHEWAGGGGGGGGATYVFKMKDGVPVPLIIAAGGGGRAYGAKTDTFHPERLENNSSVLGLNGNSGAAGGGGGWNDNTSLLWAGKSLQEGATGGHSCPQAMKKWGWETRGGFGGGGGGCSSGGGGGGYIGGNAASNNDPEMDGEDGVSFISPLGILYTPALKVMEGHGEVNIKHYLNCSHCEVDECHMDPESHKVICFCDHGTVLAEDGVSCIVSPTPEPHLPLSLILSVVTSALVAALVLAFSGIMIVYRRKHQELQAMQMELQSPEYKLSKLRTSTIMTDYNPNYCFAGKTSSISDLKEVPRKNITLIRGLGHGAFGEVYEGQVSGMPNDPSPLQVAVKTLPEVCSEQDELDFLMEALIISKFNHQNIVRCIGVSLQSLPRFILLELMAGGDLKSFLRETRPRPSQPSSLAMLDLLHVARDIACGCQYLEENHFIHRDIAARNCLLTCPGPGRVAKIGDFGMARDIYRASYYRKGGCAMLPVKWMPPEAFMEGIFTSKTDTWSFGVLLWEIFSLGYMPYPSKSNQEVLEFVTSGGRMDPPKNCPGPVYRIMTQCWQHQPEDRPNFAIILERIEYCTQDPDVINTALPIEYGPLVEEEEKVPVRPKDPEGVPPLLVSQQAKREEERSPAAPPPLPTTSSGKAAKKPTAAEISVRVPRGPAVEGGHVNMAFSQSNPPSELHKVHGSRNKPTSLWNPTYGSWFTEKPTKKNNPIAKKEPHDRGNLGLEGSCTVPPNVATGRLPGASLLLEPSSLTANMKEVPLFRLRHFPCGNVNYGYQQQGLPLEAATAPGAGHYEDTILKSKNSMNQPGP

Substance	phosphorylation by ALK kinase (ELISA), compared with YFF peptide (ALK kinase)	phosphorylation by Lyn (ELISA) (Lyn)	phosphorylation by Abl (ELISA) (Abl)	phosphorylation by Csk (ELISA) (Csk)
FDMDRDIYRMSFFRKGGKbGG (FDMDRDIYRMSFFRKGGK(Biotin)GG) [ALAStide-A, ALK-specific biosensor peptide; Kb is biotinylated lysine]	higher phosphorylation activity than YFF and ALAStide-B	not phosphorylated	not phosphorylated	not phosphorylated
FDMDRDIYTNTFFRKGGKbGG (FDMDRDIYTNTFFRKGGK(Biotin)GG) [ALAStide-B, ALK-specific biosensor peptide; Kb is biotinylated lysine]	comparable phosphorylation level with YFF peptide	not phosphorylated	not phosphorylated	not phosphorylated
FGMARDIYRASFFRKGGKbGG (FGMARDIYRASFFRKGGK(Biotin)GG) [YFF peptide, known peptide substrate of ALK in the literature, reference compound]	–	lack of affinity	lack of affinity	lack of affinity
